This is an account of results in patent US11260100B2, “Compositions targeting the interaction domain between p27Kip1 and Brk and methods of use thereof to inhibit p27 Y phosphorylation and cdk4 activity” (The Research Foundation for the State University of New York, priority 2014, dated 2022).

One assay has as its target T1, cdk4 (Homo sapiens, UniProt P11802).
T1 construct: added to or expressed in MCF7 breast cancer cells on day 2 post plating; endogenous in cells; host or cells: MCF7 (ALT-MCF7 tetracycline-inducible line)
As to the kind of experiment: Immunoblot of pRBser780 as measure of active cdk4 (FIG. 10). In kind it is cell-based. As to conditions: MCF7, drugs at IC50. (In western blotting, separated proteins are transferred to a membrane and probed.)

The target of another assay is T2, cdk2 (Homo sapiens, UniProt P24941).
T2 construct: added to or expressed in MCF7 breast cancer cells on day 2 post plating; endogenous in cells; host or cells: MCF7 (ALT-MCF7 tetracycline-inducible line)
Nature of the assay: Immunoblot of cdk2T160 as measure of activated cdk2 (FIG. 10). In kind it is cell-based. As to conditions: MCF7, drugs at IC50. The procedure:
FIG. 10: ALT BRK inhibits both CDK4 and CDK2. ALT, Palbociclib alone or in combination were added to or expressed in MCF7 breast cancer cells on day 2 post plating. Drugs were added at their IC50 concentration, based on previous results. ALT is expressed from an ALT-MCF7 tetracycline inducible cell line generated in the Blain lab. When tetracycline is added to the cell culture media, ALT is expressed in these cells. Vector: no tetracycline was added, so no ALT induction was detected. Drugs and media were replaced every two days. Cells were harvested every two days, lysed and used in immunoblot analysis. Actin: loading control. pRBser780 is a phospho-specific antibody that recognizes sites phosphorylated by cdk4, so is a measure of active cdk4. cdk2T160 recognizes a required phosphorylation event on residue […] and is a measure of activated cdk2.
Additional experiments were performed assessing activity of Brk in combination with Palbociclib. The data presented in FIGS. 9A and 9B reveal that Palbociclib and Brk inhibit proliferation for 2 days, and then resistance is observed (proliferation increases). Alt maintained arrest for roughly 10 days (50% inhibition of proliferation is detected). […] Alt-Brk/Palbociclib combination leads to a more durable cell cycle arrest. Mono therapy treated cells start to become resistant between day 8-10. […]

The next assay concerns MCF7 cells. Nature of the assay: Tetracycline inducible Alt Brk expression in MCF7 cells. Format: cell-based, human. The following applies: +Tet. How it is done: FIGS. 8A-8G: Alt Brk (SEQ ID NO: 17) acts as an endogenous inhibitor of Brk. (FIG. 8A) Flag tagged WT p27 was incubated with increasing amount of Flag tagged Alt-Brk (lanes 5-7) in presence of equal amount of Brk. Lane 5: +equimolar Brk and Alt, lane 6: ++2.5×Alt, lane 7: +++5×Alt Immunoblot analysis was performed using Flag, pY88 and pY74 antibodies. (FIG. 8B) Alt-Brk expressing cells were plated on day 0. They were induced (+Tet) or uninduced (−Tet) on day 1 and cells were harvested on days 2, 3 and 4 Immunoblot analysis was performed using N-terminal Brk, C-terminal Brk, Rb, Ser780 pRb, Flag or Actin antibodies. (FIG. 8C) p27 was immunoprecipitated from induced (+) or un-induced (−) Alt Brk expressing cells and immunoblot analysis was performed with p27, pY88 and pY74 antibodies. (FIG. 8D) Alt Brk or TRE3G vector alone cells were treated with + or −Tet and cell counts were used to monitor proliferation. […] (FIG. 8F) p27 was immunoprecipitated from MCF7 cells that were either contact arrested (G0), asynchronous (A), or serum starved with 1% and 0% serum for 48 h. Immunoblot analysis was performed to probe for p27, pY88 and pY74. IgG and Mv1Lu lysates served as a negative control. (FIG. 8G) Expression of WT or mutant p27s was induced by adding Tetracycline to the culture media. p27 was immunoprecipitated from cell lysates and probed for p27, pY88 and pY74 Immunoprecipitation with IgG served as a negative control.
NP-ALT was added to cell media in the absence of fetal bovine serum for 6 hours. This media was removed and replaced with FBS+media, and cells were allowed to recover for 2 days, at which time, cell counts were determined. Counts were standardized to the proliferation seen in the NO FBS untreated control. • Expression in vivo. Generation of the WT-Brk, KM-Brk, and YF-Brk has been described (32) Amphotropic retroviruses were generated by transfection using Lipofectamine 2000 (Life Technologies 11668-019) of HEK 293 cells with pAmpho envelope and pBabe or pTRE3G tetracycline inducible constructs. Following viral infection of MCF7 cells, stable integrants were isolated by puromycin selection. Colonies were pooled to generate stable, puromycin resistant clones. Stable expression was verified by immunoblot and immunofluorescence analysis. Tetracycline inducible expression was achieved by the addition of TetExpress (Clontech) to the media. • Mouse xenograft model. Female NOD/SCID 8 week old mice were injected with MCF7-ALT cells in the 4th mammary gland. Tumors were allowed to develop to a volume of 200 mm3, before treatment. Tumor volume was monitored every other day using digital calipers. Vehicle: daily gavage with PBS. […] Doxy+PD: Daily gavage of Palbociclib 100 mg/kg and 0.1 mg/ml doxycycline added to the drinking water. • Quantitative RT-PCR. […]

T1 sequence (P11802 2-303 limits assumed): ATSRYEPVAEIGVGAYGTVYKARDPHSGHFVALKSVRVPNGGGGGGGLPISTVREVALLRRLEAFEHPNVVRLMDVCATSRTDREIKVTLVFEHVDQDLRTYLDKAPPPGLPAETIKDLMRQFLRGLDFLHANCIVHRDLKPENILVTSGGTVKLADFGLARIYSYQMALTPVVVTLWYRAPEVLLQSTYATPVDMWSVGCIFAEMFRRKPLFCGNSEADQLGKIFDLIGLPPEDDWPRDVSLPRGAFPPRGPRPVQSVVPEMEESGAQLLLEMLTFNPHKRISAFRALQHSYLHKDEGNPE
T1 sequence (P24385 whole entry partner): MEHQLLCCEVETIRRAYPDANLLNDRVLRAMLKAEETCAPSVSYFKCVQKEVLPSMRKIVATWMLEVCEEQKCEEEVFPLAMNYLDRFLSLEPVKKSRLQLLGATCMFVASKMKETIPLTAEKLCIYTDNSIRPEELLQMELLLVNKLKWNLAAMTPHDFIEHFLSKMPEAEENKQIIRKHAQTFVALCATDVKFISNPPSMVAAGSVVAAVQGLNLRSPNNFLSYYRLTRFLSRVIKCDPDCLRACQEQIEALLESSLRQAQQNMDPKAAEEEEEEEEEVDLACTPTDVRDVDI
Experimental for cdk4: ALT, Palbociclib alone or in combination were added to or expressed in MCF7 breast cancer cells on day 2 post plating. […] ALT is expressed from an ALT-MCF7 tetracycline inducible cell line generated in the Blain lab. When tetracycline is added to the cell culture media, ALT is expressed in these cells. Vector: no tetracycline was added, so no ALT induction was detected. Drugs and media were replaced every two days. Cells were harvested every two days, lysed and used in immunoblot analysis.

B1: Alt-Brk: alternative splice variant of Brk (SEQ ID NO: 17), 15 KD protein with SH3 domain, lacks kinase domain (protein, listed as Homo sapiens)
chain: MVSRDQAHLGPKYVGLWDFKSRTDEELSFRAGDVFHVARKEEQWWWATLLDEAGGAVAQGYVPHNYLAERETVESEPAGHAGCAALQDLAACRGPAAPERGGVLPQPARACELPQGPEPVPRPAAGRALPEARA
On to B1, for which the “cdk4 activity (pRBser780)” value in the assay with cdk4 is given as “inhibits cdk4”. In the assay with cdk2, the “cdk2 activity (cdk2T160)” value is listed as “inhibits cdk2”. In the assay on MCF7 cells, the “Rb phosphorylation on residue Ser780” value is listed as “Rb phosphorylation was reduced”; the “cell cycle effect (cell counting, FACS)” value was “arrested in G1 phase”; the “endogenous p27 Y74 phosphorylation” value was “unchanged”; the “endogenous p27 Y88 phosphorylation” value is listed as “reduced”.
